Measured values published in PMC7652416.

How the values were obtained:
[1] = target: ClpX^ΔN (residues 62–424) T199V mutant (E. coli) (UniProt P0A6H1)
[2] = target: E. coli ClpX^∆N (residues 62–424) (E. coli) (UniProt P0A6H1)
[3] = target: ClpX^ΔN (residues 62–424) T199S mutant (E. coli) (UniProt P0A6H1)

KM of GFP-ssrA degradation by ClpX^∆N variant/ClpP (Michaelis-Menten fit) [1]: 89 µM
KM of GFP-ssrA degradation by ClpX^∆N/ClpP (Michaelis-Menten fit) [2]: 1.3 µM
KM of GFP-ssrA degradation by ClpX^∆N variant/ClpP (Michaelis-Menten fit) [3]: 6.3 µM
Substance: GFP-ssrA
